Laboratory results taken from paper PMC4007562.

Assays:
Test in all cases: ITC; MicroCal iTC200, 25°C, 20 mM Tris/HCl pH 9.0, 100 mM NaCl; SH3B6, sdAb19 or Neffin at 200 μM injected from the syringe into 20 μM Nef in the cell
[1] = target: HIV-1 Nef_(NL4–3) (41–206, C206A) (HIV-1 (NL4-3))
[2] = target: HIV-1 NefSF2 (45–210, C59S, C210A) (HIV-1 (SF2)) (UniProt P03407)
[3] = target: HIV-1 NefNA7 (41–206, C206A) (HIV-1 (NA7))

Row | Substance | Kd [1] [nM] | dH [1] [kcal/mol] | stoichiometry N [1] | Kd [2] [nM] | dH [2] [kcal/mol] | stoichiometry N [2] | Kd [3] [nM] | dH [3] [kcal/mol] | stoichiometry N [3]
1 | Neffin (sdAb19–SH3B6 fusion, 8 aa linker) (from UniProt P08631 77-138) (designed binder) | 3.9 | -33.2 | 0.65 | 1.6 | -38.3 | 0.66 | 14.4 | -34.7 | 0.67
2 | Neffin_(triple) (Neffin with D60R/G102R/S103E in the sdAb19 subunit) (from UniProt P08631 77-138) (designed binder) |  |  |  | 23.3 | -18.1 | 1.08 |  |  | 
3 | human Hck-SH3B6 (residues 79–138 of human Hck) (from UniProt P08631 79-138) (designed binder) |  |  |  | 18.7 | -22.5 | 0.81 |  |  | 
